# Measured values reported in patent US20040208887A1 (MOLECULES OF MAN, published 2004).
# How the values were obtained:
# [1] = target: T1, recombinant soluble HCV E1 protein (hepatitis C virus); assay: ELISA, recombinant E1 captured on GNA lectin; crude periplasmic Fab
# T1 construct: It is not the cell-surface E1-myc construct (aa 174-359 of H77c) that was used for phage selection; also called recombinant E1; soluble E1 protein
# [2] = target: T2, recombinant E1/E2 heterodimer protein (genotype 1a) (hepatitis C virus genotype 1a, UniProt P26664 192-383; P26664 384-746, limits assumed); assay: ELISA, E1/E2 heterodimer coated; crude periplasmic Fab
# T2 construct: also called E1/E2 in complex; recombinant E1/E2 antigen
# T2 sequence (P26664 192-383 limits assumed, chain 1 of 2): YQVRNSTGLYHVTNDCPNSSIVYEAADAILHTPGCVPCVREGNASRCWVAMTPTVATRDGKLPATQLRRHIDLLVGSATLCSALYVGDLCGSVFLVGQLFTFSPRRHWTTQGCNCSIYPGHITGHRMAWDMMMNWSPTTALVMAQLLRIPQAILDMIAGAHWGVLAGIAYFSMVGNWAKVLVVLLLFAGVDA
# T2 sequence (P26664 384-746 limits assumed, chain 2 of 2): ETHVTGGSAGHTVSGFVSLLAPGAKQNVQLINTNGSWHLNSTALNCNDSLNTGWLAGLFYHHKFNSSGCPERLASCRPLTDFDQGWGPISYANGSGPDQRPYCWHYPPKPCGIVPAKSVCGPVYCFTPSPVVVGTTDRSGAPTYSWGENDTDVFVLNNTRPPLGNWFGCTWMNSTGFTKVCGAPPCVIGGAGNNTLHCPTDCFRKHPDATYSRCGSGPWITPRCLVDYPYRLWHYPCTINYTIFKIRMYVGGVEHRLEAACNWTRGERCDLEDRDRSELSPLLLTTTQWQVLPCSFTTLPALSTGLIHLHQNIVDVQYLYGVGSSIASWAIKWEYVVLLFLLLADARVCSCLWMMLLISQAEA
Binder,OD405 nm [1],OD405 nm [2]
"Fab clone 1:9 (Fab, V domains shown, Human Fab (gamma1 Fd + kappa), crude periplasmic preparation, approx. 0.05 ug Fab/ml) VH: EVQLLESGPGLVKPSETLSLTCTVSGNSISSGYYWVWFRQSPGKGLEWIASIYHSGSTYYNPSLRSRVSISVDTSKKQFSLKLSSVTAADTAVYYCARDSAKTTRYFVHWGQGTLVTVSS VL: AELTQSPGTLSLSPGERATLSCRASQSVSSSYLAWYQQKAGQAPRLLIYGASRRATGIPVRFSGSGSGAEFTLTISSLQSEDSAVYYCQHYHNWPAMYTFGQGTKLEIK",0.96 OD405 nm,0.67 OD405 nm
"Fab clone 1:8 (Fab, V domains shown, Human Fab (gamma1 Fd + kappa), crude periplasmic preparation, approx. 0.01 ug Fab/ml) VH: EVQLLESGGGLVEPGRSLRLSCAASGFNFGDYAIHWVRQGPGKGLEWVAGISWNSGSIGYADSVKGRFIISRDNAKKTLFLQMNTLRTEDTALYYCVKETGAQGVAGSGAYYFHNWGQGTLVTVSS VL: AELTQSPSSLSASIGDRVTITCRASQGISNYVAWYQQRPGKVPKLLIFGASALHSGVPSRFSGSGSGTDFTLTITSLQPEDVATYYCQKYRSAPLTFGPGTRVDLK",0.75 OD405 nm,0.53 OD405 nm
"Fab clone 2a-5 (Fab, V domains shown, Human Fab (gamma1 Fd + kappa), crude periplasmic preparation, approx. 0.44 ug Fab/ml) VH: EVQLLESGPGLVKPSETLSLTCTVSTGSISGYFWSWIRQPPGKGLEWIAYIHNSGNTNYNPSLRSRVTVSIDTSKNQFSLKLTSVTAADTAVYYCARDGGGWDTYLDSWGQGFLVTVSS VL: AELTQSPSSLSASVGDRVTITCRASQTVSSYLNWYQQKPGKAPKVLIYGISTLQSGVPSRFSGSGSETDFTLTISNLQPEDFAIYYCQQSYSSRTFGQGTKVEIK",0.89 OD405 nm,0.08 OD405 nm
"Fab clone 6a:5 (Fab, V domains shown, Tested as a human Fab (gamma1 Fd + kappa), crude periplasmic preparation, approx. 0.33 ug Fab/ml) VH: EVQLLESGPGLVKPSQTLSLTCAISGDNVSRKSAAWNWIRQSPSRGLEWLGRTYHMSKWYSVYATSLKSRININVDTSRNQFALQLRSVTPEDTAVYYCAREGPEWAVGGTYGMDVWGQGTTVTVSS VL: AELTQSPDTLSLSPGERATLSCRASQSVNNNYLAWYQQKPGQAPRLLIYGASSRATGIPDRFSGSGSETDFTLTISRLEPEDFAVYYCQQYDSSRTFGQGTKVEIK",0.15 OD405 nm,0.09 OD405 nm
"Fab clone 2a-14 (Fab, V domains shown, Human Fab (gamma1 Fd + kappa), crude periplasmic preparation, approx. 0.72 ug Fab/ml) VH: VQLLEQSGGGVVQPGRSLRLSCAASGFTFSTYAMHWVRQAPGKGLEWVAVISHDGSNKFYADSVKGRFTISRDSSKNTLYLQMNSLRPGDTAVYYCSRWDRRAEYFQDWGQGTLVTVSS VL: AELTQSPAFMSATPGDKVNISCKASQDIDDDMNWYQQKPGEAAIFIIQEATTLVPGIPPRFSGSGYGTDFTLTINNIESEDAAYYFCLQHDNFPLTFGQGTKVEIK",0.36 OD405 nm,0.09 OD405 nm
"Fab clone 2a-30 (Fab, V domains shown, Human Fab (gamma1 Fd + kappa), crude periplasmic preparation, approx. 0.96 ug Fab/ml) VH: VQLLEQSGGGLVQPGGSLRLSCTASGFTLTDYSMDWVRQAPGKGPEWVGRSRNKANIYTTEYAASVKGRFVISRDDSENSVYLQMNNVKMDDTAVYYCARGEGIFYGSGSLDLWGQGAVVTVSS VL: AELTQSPSSLSASVGDRVTITCRSSQSISNSLHWFQQEPGKAPKLLIYAASTLQSGVPSRFSGSGSGTDFTLIITGLQPEDFATYYCQQSPRTPLTFGGGTKVEIR",1.11 OD405 nm,0.52 OD405 nm
"Fab clone 4:6 (Fab, V domains shown, Tested as a human Fab (gamma1 Fd + kappa), crude periplasmic preparation, approx. 0.24 ug Fab/ml) VH: VQLLEQSGAEVKKPGASVKVSCKASGYTFTKYYLHWVRQAPGQGLEWMGFINPSGGSTSSAQKFQGRISMTRDTSTTTVYMEVNSVTSEDTAVYYCARVGRLGVGATGAFDLWGQGTMVTVSS VL: AELTQSPSSLSASVGDRVTITCQASQDINYSLNWYQQKPGKPPKLLIYYASHSDTGVPSRFSGGGSGTRFTLTIYSLQPEDIATYYCQHFDHVPRYTFGPGTKVDLK",0.97 OD405 nm,0.2 OD405 nm
"Fab clone 1:10 (Fab, V domains shown, Human Fab (gamma1 Fd + kappa), crude periplasmic preparation, approx. 0.01 ug Fab/ml) VH: EVQLLESGAEVKKPGESLRISCRGSGYSFPNYWVSWVRQMPGKGLEWMGKIDPSDSETNYSPSFQGHVTISADKSLSIAYLQWNSLKASDTAMYYCARHKRGAPTYKDILTGYYVDGMDVWGQGTTVTVSS VL: AELTQSPDSLAMSLGERASINCKSSRSLLYSSNNKNYLAWYQQKSGHPPKLLIYWASTRESGVPDRFNGSGSGTDFTLTISSLQAEDVAVYFCQQYYSSPLTFGGGTKVEIK",0.2 OD405 nm,0.12 OD405 nm
